Experimental data published in the nanobody polyreactivity screen of Harvey et al. (2022).

Test: yeast display, Sf9 membrane polyspecificity reagent, FACS + sequencing; frameworks hold sequencing errors
In short: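 Nanobodies came from a synthetic yeast display library in Saccharomyces cerevisiae BJ5465, induced with galactose for 36–48 hours and stained for 1 hour at 4 °C with 10% biotinylated, detergent-solubilized Sf9 membrane reagent. Cells were enriched on streptavidin microbeads and then FACS-sorted, with low and high (top ~1%) gates set on anti-HA fluorescence for expression and streptavidin fluorescence for reagent binding. Each polyreactivity label reflects the gate a clone came from. Genes were amplified by colony PCR, sequenced by MiSeq 2 × 250 and filtered by CDR length.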

| Sequence | polyreactivity (PSR sort gate) |
| --- | --- |
| QVQLVESGGGLVQAGGSLRLSCAPSGFTFRYNTMAWYRQAPGKERELVAAISSSGSSTYYADSVKGRFTISRDNAKNTVYLQMNSLKPVDTAVYYCNAVHRRTRYGYWGQGTQVTVSS | high polyreactivity |
| QVQLVESGGGLVQAGGSLRLSCAASGITFGTNAMGWYRQAPGKERELVAAITSGVSTYYADSVKGRFTISRDNAKNTVYLQMNSLIPEDTAVYYCAKDVAVYADLYQGDPYGYWGQGTLVTVSS | low polyreactivity |
| QVQLVESGGGLVQAGGSLRISCASSGFTFSQYAMGWYRQAPGKERELVAAISSSGGRTYYADSVKGRFTISRDNAKNTVYLQMKSLKPEDTAFFYCAAPGAQGLGLRGAGLDYWGQGTQVTVSS | high polyreactivity |
| QVQLVESGGGLVQAGGSLRLSCAASGRIFGPYTMGWYRQAPAKEREFVAAITRRGGSTYYADSVKGRFTISRDNAKNTVYLQMNSLKPEDTAVYYCAAVGLKRSLGYSWGQGTQVTVSS | low polyreactivity |
| QVQLVESGGGLVQAGGSLRFSCAASGRIFYLNAMGWYRQAPGKERELVAAISRSGGRTYYADSEKGRFTISRDNAKHTVYLQMNSLKPEDTAVYYCAADTAGATPERNYWGQGPQVTVSS | high polyreactivity |
| QVQLVESGGGLVQAGGSLRLSCAASGRIFYWNAMGWYRQAHGKERELVAAISWSGGSTYYADSVKGRFTISRDNAKNTVYLQMNSLKPEDTAVYYCAADGGRRTYYVKYDYWGQGTQVTASS | low polyreactivity |
| QVQLVESGGGLVQAGGSLRLSCAASGSIFVGYAMGWYRQAPGKEREWVAAIRSGGSTKYADSVKGRFTISRDNAKNTVYLQMNSLKPEDTAVYYCNVEVHPYYWVDNFQRFPVLHNYWGQGTQVTVSS | low polyreactivity |
| QVQLVESGGGLFQAGGILRLSCAASGFTFERNDMGWYRQAPGKERELVATISQSGTNTYYADSVKGRFTISRDNAKNTVYVQMNSMKPEDTAVYYCNARYIFYRYDYWGHGTQVTVSS | low polyreactivity |
| QVQLVESGGGLVQAGGSLRLSCAASGFTIIYNAMGWYSQAPGKERELVAAISSGGSTYYADSVKGRFTISRDNAKNTVYFQMNSLKPVDTAVYYCNADVGFFNSGYEDSDYWGQGTQVTVSS | low polyreactivity |
| QVQLVESGVGLVQAGGSLRLSCAASGPTFRNNAMVWSRQAPGKERELVAAITSGGSTNYADSVKGRFTISRDNAKNTVYLQMNSLKPEDTAVYYCAKDFWYVTGGWSSGMDYWGQGTQVSVSS | low polyreactivity |
| QVQLVESGGGLVQAGGSLRLSCAASGSTFYSYAMGWYRQAPGKERELVAAITIISGSTYYADSVKGRFTISRDNAKNTVYLQMNSLKPEDTAVYYCAADSYYSFVPLDEYWGQGTQVTVSS | high polyreactivity |
| QVQLVESGGGLVQAGGSLRLRCAASGFTFYRYAMGWYRQAPGKERELVAAISQRGGTTYYADSVKGRFTISRDNSKNTVYLQMNSLKPDDPAVYYCAARGRAYQNAYEYDYWGQGTQVTVSS | high polyreactivity |
| QVQLVESGGGLVQAGGSLRLSCAASGFTFPSYDMGWYRQAPGKERELVAAISWSGTSTYYADSVKGRFTISRDNAKNTVYLQMNSLKPEDTAVYYCNAQYSYLWGEYGYWGQGTQVTVSS | high polyreactivity |
| QVQLVESGGGLVQAGGSLRLSCAASGITFGDYAMGWYRQAPGKERELVAAISKRGGSTYYADSVKGRFTISRDNAKNTVYLQMNSLKPEDTAVYYCAADYYINAYYYWGQGTQVTVSS | high polyreactivity |
| QVQLVESGGGLVQAGGSLRLSCAASGSTFAAYAMGWYRQAPGKERELVAAISGGRTYYADSVKGRFTISRDNAKNTVYLEMYSLKPEDTAVYYCAKRYFYYTAFNAYGYWGQGTQVTVSS | high polyreactivity |
| QVQLVESGGGLVQAGGSLRLSCAASGSTLSVNAMGWYRQAPGKERELVAAIDFDGGDTYYADSVKGRFTISRDNAKNTVYLQMNSLKPEDTAVYYCAADIGGQYDYLADDYWGQGTQVTVSS | low polyreactivity |

| Sequence | polyreactivity (PSR sort gate) |
| --- | --- |
| QVQLVESGGGLVQAGGSLRLSCAASGSIFGLYTMGWYRQAPGKERELVAAIDSGDSTNYADSVKGRFTISRDNEKNTVYLQMNSLKQEDTAVYYCNALGEYPYYSSFWYESWGQGTQVTVSS | low polyreactivity |
| QVQLVESGGGLVQAGGSLRLSCAASGGIFTAYTIGWYRQAPGKERELVATITRGGSTNYADSVKGRFTISRDNAMNTVYLQMNSLKPEDTAVYYCNARVQRRGVQYYYWGHGTQVTVSS | high polyreactivity |
| QVQLVESGGGLVQAGGSLRLSCAASGLTFERYAMGWYRQAPGKERELVAAISIRGGSTYYADSVKGRFTISRDNAKNTVYLQMNSLKPEDTAVYYCSADGRGREYDYWGQGTQVTVSS | low polyreactivity |
| QVQLVESGGGLVQAGGSLRLSCAASGRTFISNAMGWYRQAPGKERELVAAITSTGGRTYYADSVKGRFTISRDNAKNTVYLQMNSLKPEDTAVYYCNTGKRRFYSMDYWGQGTQVTVSS | high polyreactivity |
| QVQLVESGGGLVQAGGSLRLSCAASGRTFATYAMAWYRQAPGKERELVAAISRSGSTTYYADSVKGRFTISRDNAKNTVYLQMNSLKPEDTAVYYCNAKFRKADYDYWGQGTQVTVSS | high polyreactivity |
| QVQLVESGGGLVQAGGSLRLICAASGRTSYTYVMGWYRQAPGKERELVAAIRLSGGNTYYADSVKGRFTISRDNAKNTVYLQMNSLKPEDTAVYYCAAQYWRHRKAYGYWGQGSQVTVSS | high polyreactivity |
| QVQLVESGGGLVQAGGSLRLSCAASGSILGYYAMGWYRQAPGKERELVAANTASGGSTYYADSVKGRFTISRDNAKNTVYLQMNSLKPEDTAVYYCAAQYYATYGYWGQGTQVTVSS | low polyreactivity |
| QDQLVESGGGLVQAGGSLSLSCADSGLTFGANTMGWYRQAPGKERELVATITQSVGRTYYADSVKGRFTISRDNAKNTVYLQMNSLKPEDTADYYCNAELYTVRVYTHPVYVRHDYWGQGTQVTVSS | high polyreactivity |
| QVPLVESGGGIDQAGGSLRLSCAASGFIFCTYTMGWYIQAPGNEWELVAAISKSSGSTYYADSVKGRFTISRDNAKKTVYLQMNSLKPEDTAVYYCAAPTRSYGTPPYDYWGQGTQVTVSA | low polyreactivity |
| QVQLVESGGGLVQAGGSLRLSCAASGRIFYSNAMGWYRQAPGKERELVAAISRSGVRTYYADSVKGRFTISRDNAKNTVYLQMNSLKPEDTAVYYCAAVIYGTTPQDEYDYWGQGTQVTVSS | low polyreactivity |
| QVQLVESGGGLVQAGGSLRLRCAASGYTFPSNAKGWYRQAPGKERELVAPISSGGRTNYADSVKGRFTISRDNAKNTVYLLMKSLKPEDTAVYYSNADGGPGYPRAYDYWGQVTQVTVSS | low polyreactivity |
| QVQLVESGGGLVQAGGSLRLSCAASGYTFGYYAMGWYRQAPGKERELVAAINYSGGRTYYADSVKGRFTISRDNAKNTVYLQMNSLKPEDTAVYYCNAKYGGWSKYWFPRDMDYWGQGTQVTVSS | low polyreactivity |
| QVQLVESGGGLVQAGGSLRLSCAASGSTFKRYAMGWYRQAPGKDRELVAAIRRGGITNYADSVKGRFTISRDNAKNTVYLQMNSLKPEDTAVYYCAKDGVTYPYSYEYDYWGQGTQVTVSS | low polyreactivity |
| QVQLVESGGGLVQAGGSLRLSCAASGRIFDRYALGWYRQAPGTERELVAVISQSGGRTYYADSVKGRFTISRDNAKNTVYLEMNSLKPEDSAVYYCNKRYRNRYSYSEGDYWGQGTQVTVSS | high polyreactivity |
| QVQLVESGGGLVQAGGSLRLSCAASGSIFGRYAMGWYRQAPGKERELLAALTYRGGTTYYADSVKGRFTISRDNAKNTVYLQMNSLKPEDTAVYYCAAEGTWYYKYGYFAYYYWGQGTQVTVSS | low polyreactivity |
